Measured values from paper doi:10.1101/764241v3.

Substrate: O=c1ccn([C@@H]2O[C@H](COP(=O)(O)OP(=O)(O)O[C@H]3O[C@H](CO)[C@H](O)[C@H](O)[C@H]3O)[C@@H](O)[C@H]2O)c(=O)[nH]1
Test: [3H]Gal transfer, Sep-Pak C18 scintillation counting
Assay type: biochemical, Globisporangium ultimum
Conditions: donor, maltose-pNP acceptor, 2 mM MnCl2, pH 7.0, 37°C

B1: PuGat1 (Globisporangium ultimum DAOM BR144) (protein)
chain: MTVGTRRAAYATLITSDAYVMGVEALVYSLFKARVAFPLVVLHSSQVTQPTVAKLTRFCAPFQSSTWRISFRSVPDIGIPDEVTDRSTVHVPGWVNSGYTKLHIFAMDDFEQIVYIDADAIVLQNVDELFDRSTSFAAAPDVFPPDRFNAGVLVIRPNKQLFADLLAKAKELKSYDGGDTGFLNAFFPKWFESDAASRLPFGYNAQRTMYWLVNGKNPGYWNAVQPLKILHYSSNPKPWEDPSRKGDLEILWWQMYTESRCMSFLG
Km: 15 µM
